# Laboratory results: patent US20190062457A1 (BROWN UNIVERSITY, published 2019)
# Molecular target: T1, human Chi3l1 (chitinase 3-like-1) (human, UniProt P36222 22-383)
# T1 construct: also called YKL-40; recombinant (r) human Chi3l1
# Experiment: Western blot / ELISA detection of Chi3l1, denaturing and non-denaturing
# T1 sequence (P36222 22-383 limits assumed): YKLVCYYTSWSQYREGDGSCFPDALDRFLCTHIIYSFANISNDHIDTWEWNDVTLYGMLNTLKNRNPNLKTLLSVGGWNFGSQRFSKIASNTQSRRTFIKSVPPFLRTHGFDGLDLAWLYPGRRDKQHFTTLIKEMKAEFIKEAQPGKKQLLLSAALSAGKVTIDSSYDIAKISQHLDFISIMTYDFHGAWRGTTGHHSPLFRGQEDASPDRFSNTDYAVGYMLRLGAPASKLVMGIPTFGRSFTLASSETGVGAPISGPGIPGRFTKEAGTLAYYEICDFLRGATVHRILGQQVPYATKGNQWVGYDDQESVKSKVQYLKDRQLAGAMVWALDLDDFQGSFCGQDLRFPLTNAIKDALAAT
binder,measurement,value
"FRG monoclonal antibody (anti-Chi3l1) (antibody, IgG2b, V domains shown, The antibody is described as an IgG2b Kappa monoclonal; also called FRG mAb; FRG antibody) VH: QIQLVQSGPELKKPGETVKISCKASGYTFTNYGMNWVKQAPGKGLKWMGWINTYTGEPTYADDFKGRFAFSLETSASTAYLQINNLRNEDMSTYFCARLGYGKFYVMDYWGQGTSVTVSS VL: DVVMTQTPLSLPVSLGDQASISCRSSQSLVHSNGNTYLHWYLQKPGQSPKLLIYKVSNRFSGVPDRFSGSGSGTDFTLKISRVEAEDLGVYFCSQSTHVTWTFGGGTKLEIK",binding result,binds
